{"source": "paper PMC9556597", "molecular_target": "AV-1980R recombinant protein (3xTau2-18-MultiTEP) (human) (UniProt P10636)", "test": "AUC; protein in 3.2 M urea", "data": [{"substance": "AV-1980R recombinant protein (3xTau2-18-MultiTEP) (from UniProt P10636 2-18; P10636 2-18; P10636 2-18)", "values": [{"measurement": "stoichiometry N", "value": 4}]}]}
